This data set is described as follows: self-splicing fitness, log relative to wild type (ln ratio); higher = more splicing; Tetrahymena group I intron in knt gene, E. coli kanamycin selection, DiMSum; sequences stand for … in CUCUCU…GGAGGGAAAAGUUAUCAGGCAUGCACCUGGUAGCUAGUCUUUAAACCAAUAGAUUGCAUCGGUUUAAAAGGCAAGACCGUCAAAUUGCGGGAAAGGGGUCAACAGCCGUUCAGUACCAAGUCUCAGGGGAAACUUUGAGAUGGCCUUGCAAAGGGUAUGGUAAUAAGCUGACGGACAUGGUCCUAACCACGCAGCCAAGUCCUAAGUCAACAGAUCUUCUGUUGAUAUGGAUGCAGUUCACAGACUAAAUGUCGGUCGGGGAAGAUGUAUUCUUCUCAUAAGAUAUAGUCGGACCUCUCCUUAAUGGGAGCUAGCGGAUGAAGUGAUGCAACACUGGAGCCGCUGGGAACUAAUUUGUAUGCGAAAGUAUAUUGAUUAGUUUUGGAGUACUCGUGGUCG
The gist of the method: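 DiMSum derived fitness as the error-weighted combination of fold changes across replicates, kanamycin versus no kanamycin, normalised to wild type. E. coli BL21(DE3) held the library, which randomised all eight P1ex-region intron nucleotides within the knt kanamycin-resistance gene on pET-22b(+). Six replicate transformations grew overnight at 37°C or 30°C on LB agar with or without 25 μg/mL kanamycin, also containing 100 μg/mL carbenicillin, 50 μM IPTG and 0.2% rhamnose, and pooled colonies were amplicon-sequenced on an Illumina HiSeq 2500.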

The values that follow come from the supplement of paper PMC7877785.

± gives the uncertainty stated by the source.

As for UGGUAGCAAUAUUACGACUC, the “self-splicing fitness (ln)” value reads like this: (30 °C) -0.656 ± 0.23; (37 °C) -0.807 ± 0.35.

With UGGUAGCAAUAUUACGAGGU, the “self-splicing fitness (ln)” value by setting is: (30 °C) -2.63 ± 0.45; (37 °C) -2.6 ± 0.35. Take UGGUAGCAAUAUUACGAUCG: the “self-splicing fitness (ln)” value (30 °C) is 0.32 ± 0.085 and the “self-splicing fitness (ln)” value (37 °C) is 0.623 ± 0.11. For UGGUAGCAAUAUUACGAUGA the same measures were -0.831 ± 0.13 and -0.597 ± 0.19.

With UGGUAGCAAUAUUACGAUUA, the “self-splicing fitness (ln)” value by setting is: (30 °C) -0.395 ± 0.055; (37 °C) 0.0463 ± 0.066.

On to UGGUAGCAAUAUUACGCGGU, for which, for the setting “37 °C”, the “self-splicing fitness (ln)” value is -2.58 ± 0.45. Consider UGGUAGCAAUAUUACGCUCG, for which the “self-splicing fitness (ln)” value was 0.322 ± 0.17 (30 °C) and 0.532 ± 0.25 (37 °C). For UGGUAGCAAUAUUACGCUUG, the “self-splicing fitness (ln)” value reads like this: (30 °C) -0.988 ± 0.092; (37 °C) -0.402 ± 0.11.

Turning to UGGUAGCAAUAUUACGGCUA, the “self-splicing fitness (ln)” value is, setting by setting: (30 °C) -1.37 ± 0.2; (37 °C) -0.75 ± 0.19. For the sequence UGGUAGCAAUAUUACGGGAU, the “self-splicing fitness (ln)” value is, setting by setting: (30 °C) -3.14 ± 0.36; (37 °C) -2.32 ± 0.28.

On to UGGUAGCAAUAUUACGUAGC, for which the “self-splicing fitness (ln)” value (30 °C) is -1.3 ± 0.2 and the “self-splicing fitness (ln)” value (37 °C) was -0.833 ± 0.27. Turning to UGGUAGCAAUAUUACGUCUU, the “self-splicing fitness (ln)” value is, setting by setting: (30 °C) -0.526 ± 0.12; (37 °C) 0.37 ± 0.13.

Consider UGGUAGCAAUAUUACGUGCC, for which the “self-splicing fitness (ln)” value runs as follows: (30 °C) -1.42 ± 0.21; (37 °C) -2.45 ± 0.39. Regarding UGGUAGCAAUAUUACGUUAC, the “self-splicing fitness (ln)” value (30 °C) is -2.42 ± 0.37. In the case of UGGUAGCAAUAUUACGUUAG, the “self-splicing fitness (ln)” value by setting is: (30 °C) -1.9 ± 0.067; (37 °C) -0.599 ± 0.072. With UGGUAGCAAUAUUACGUUUU, the “self-splicing fitness (ln)” value is, setting by setting: (30 °C) -3.96 ± 0.24; (37 °C) -2.32 ± 0.16.

Consider UGUAAGCAAUAUUACGAAGC, for which the “self-splicing fitness (ln)” value is, setting by setting: (30 °C) -3.44 ± 0.28; (37 °C) -2.61 ± 0.34. UGUAAGCAAUAUUACGACUG: the “self-splicing fitness (ln)” value runs as follows: (30 °C) -0.779 ± 0.11; (37 °C) -1.14 ± 0.14. For UGUAAGCAAUAUUACGAGAG the same measures were -3.81 ± 0.23 and -1.87 ± 0.25. On to UGUAAGCAAUAUUACGAGCC, for which the “self-splicing fitness (ln)” value was -1.57 ± 0.35 (30 °C) and -0.838 ± 0.43 (37 °C). UGUAAGCAAUAUUACGCAAG: the “self-splicing fitness (ln)” value is, setting by setting: (30 °C) -2.85 ± 0.39; (37 °C) -2.66 ± 0.44.

Take UGUAAGCAAUAUUACGCCAU: the “self-splicing fitness (ln)” value (30 °C) is -3.9 ± 0.27 and the “self-splicing fitness (ln)” value (37 °C) was -3.35 ± 0.3. As for UGUAAGCAAUAUUACGGAAU, the “self-splicing fitness (ln)” value (37 °C) was -2.49 ± 0.26. For the sequence UGUAAGCAAUAUUACGGACG, the “self-splicing fitness (ln)” value is -0.142 ± 0.11 (30 °C) and 0.762 ± 0.14 (37 °C). For UGUAAGCAAUAUUACGUACC, the “self-splicing fitness (ln)” value reads like this: (30 °C) -1.07 ± 0.34; (37 °C) -0.216 ± 0.26.

UGUAAGCAAUAUUACGUAGA: the “self-splicing fitness (ln)” value (30 °C) was -0.696 ± 0.12 and the “self-splicing fitness (ln)” value (37 °C) is -0.209 ± 0.16. With UGUAAGCAAUAUUACGUUGA, the “self-splicing fitness (ln)” value was -2.71 ± 0.18 (30 °C) and -1.28 ± 0.16 (37 °C). For UGUAAGCAAUAUUACGUUGU the same measures were -3.79 ± 0.21 and -2.98 ± 0.29. As to UGUCAGCAAUAUUACGACUA, the “self-splicing fitness (ln)” value (30 °C) is -0.425 ± 0.073 and the “self-splicing fitness (ln)” value (37 °C) was 0.686 ± 0.11.

UGUCAGCAAUAUUACGAGAC: the “self-splicing fitness (ln)” value (37 °C) is -2.91 ± 0.29. With UGUCAGCAAUAUUACGAUAU, the “self-splicing fitness (ln)” value is -1.6 ± 0.13 (30 °C) and -0.448 ± 0.13 (37 °C). For UGUCAGCAAUAUUACGAUCU the same measures were -0.397 ± 0.091 and 0.0205 ± 0.1. Regarding UGUCAGCAAUAUUACGCCCU, the “self-splicing fitness (ln)” value is -0.458 ± 0.13 (30 °C) and -0.00845 ± 0.19 (37 °C). Regarding UGUCAGCAAUAUUACGCCUA, the “self-splicing fitness (ln)” value runs as follows: (30 °C) -0.234 ± 0.12; (37 °C) 0.77 ± 0.16.

Take UGUCAGCAAUAUUACGCCUC: the “self-splicing fitness (ln)” value (30 °C) was -2.62 ± 0.42. For the sequence UGUCAGCAAUAUUACGCGCC, the “self-splicing fitness (ln)” value reads like this: (30 °C) -0.7 ± 0.18; (37 °C) -0.523 ± 0.23.

In the case of UGUCAGCAAUAUUACGCGGG, the “self-splicing fitness (ln)” value reads like this: (30 °C) -3.8 ± 0.3; (37 °C) -1.73 ± 0.26. For the sequence UGUCAGCAAUAUUACGCUUC, the “self-splicing fitness (ln)” value (37 °C) is -1.76 ± 0.21. Turning to UGUCAGCAAUAUUACGGAUA, the “self-splicing fitness (ln)” value was -1.37 ± 0.1 (30 °C) and -0.339 ± 0.12 (37 °C).

As to UGUCAGCAAUAUUACGGCCC, the “self-splicing fitness (ln)” value reads like this: (30 °C) -1.78 ± 0.41; (37 °C) -0.199 ± 0.4.
